# Experimental data published in paper PMC7956748 (2021).
# Legend:
# [1] = target: T1, transforming growth factor-beta 1 (TGF-β1) (UniProt P01137 279-390); assay: SPR
# [2] = target: T1, transforming growth factor-beta 1 …; assay: SPR; remark: listed apart in the source
# T1 sequence (P01137 279-390): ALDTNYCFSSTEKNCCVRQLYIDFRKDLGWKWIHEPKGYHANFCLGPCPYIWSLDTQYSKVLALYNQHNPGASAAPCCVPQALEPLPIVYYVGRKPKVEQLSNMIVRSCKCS
binder,measurement,setting,value
"cartilage oligomeric matrix protein (COMP), recombinant full-length rat (natural protein) not shown",Kd,[1],22.9 nM
same,koff,[2],0.000392 s⁻¹
"thrombospondin-4 (TSP-4), recombinant full-length rat (natural protein) not shown",Kd,[1],6.3 nM
same,koff,[2],0.000889 s⁻¹
